{
  "source": "the RNAGym collection of RNA variant scans (doi:10.1021/acssynbio.7b00057)",
  "parents": {"B1": {"name": "Pistol ribozyme (parent)", "chain": "GGGUCGUUGUUCCAUAAUCGCGUGGAUAUGGCACGCAAGUUUCUACCGGGCACCGUAAAUGUCCGACUGGAGCCGUUCGGGCGGCUAUAAACAGACCUCAGGCCCGAAGCGUGGCGGCACCUGCCGCCGGUGGUAAAAAAGAUCGGAAGAGCACACGUCU"}},
  "data": [
    {"variants_of": "B1", "experiment": "aptazyme ON/OFF ratio, guanine; higher = stronger switching; co-transcriptional cleavage with and without guanine", "values": [
      {"variant": "GGGUCGUCGCAGCAUAAUCGCGUGGAUAUGGCACGCAAGUUUCUACCGGGCACCGUAAAUGUCCGACUGGAGCCGUUCGGGCGGCUAUAAACAGACCUCAGGCCCGAAGCGUGGCGGCACCUGCCGCCGGUGGUAAAAAAGAUCGGAAGAGCACACGUCU", "note": "[U8C U10C U11A C12G]", "aptazyme ON/OFF ratio": 1.35},
      {"variant": "GGGUCGUCGCAAUAUAAUCGCGUGGAUAUGGCACGCAAGUUUCUACCGGGCACCGUAAAUGUCCGACUGGAGCCGUUCGGGCGGCUAUAAACAGACCUCAGGCCCGAAGCGUGGCGGCACCUGCCGCCGGUGGUAAAAAAGAUCGGAAGAGCACACGUCU", "note": "[U8C U10C U11A C12A C13U]", "aptazyme ON/OFF ratio": 1.25},
      {"variant": "GGGUCGUCGCAAGAUAAUCGCGUGGAUAUGGCACGCAAGUUUCUACCGGGCACCGUAAAUGUCCGACUGGAGCCGUUCGGGCGGCUAUAAACAGACCUCAGGCCCGAAGCGUGGCGGCACCUGCCGCCGGUGGUAAAAAAGAUCGGAAGAGCACACGUCU", "note": "[U8C U10C U11A C12A C13G]", "aptazyme ON/OFF ratio": 1.14},
      {"variant": "GGGUCGUCGCAAAAUAAUCGCGUGGAUAUGGCACGCAAGUUUCUACCGGGCACCGUAAAUGUCCGACUGGAGCCGUUCGGGCGGCUAUAAACAGACCUCAGGCCCGAAGCGUGGCGGCACCUGCCGCCGGUGGUAAAAAAGAUCGGAAGAGCACACGUCU", "note": "[U8C U10C U11A C12A C13A]", "aptazyme ON/OFF ratio": 1.35},
      {"variant": "GGGUCGUCGCCGGAUAAUCGCGUGGAUAUGGCACGCAAGUUUCUACCGGGCACCGUAAAUGUCCGACUGGAGCCGUUCGGGCGGCUAUAAACAGACCUCAGGCCCGAAGCGUGGCGGCACCUGCCGCCGGUGGUAAAAAAGAUCGGAAGAGCACACGUCU", "note": "[U8C U10C U11C C12G C13G]", "aptazyme ON/OFF ratio": 1.35},
      {"variant": "GGGUCGUCGCCGUAUAAUCGCGUGGAUAUGGCACGCAAGUUUCUACCGGGCACCGUAAAUGUCCGACUGGAGCCGUUCGGGCGGCUAUAAACAGACCUCAGGCCCGAAGCGUGGCGGCACCUGCCGCCGGUGGUAAAAAAGAUCGGAAGAGCACACGUCU", "note": "[U8C U10C U11C C12G C13U]", "aptazyme ON/OFF ratio": 1.3},
      {"variant": "GGGUCGUCGCCGAAUAAUCGCGUGGAUAUGGCACGCAAGUUUCUACCGGGCACCGUAAAUGUCCGACUGGAGCCGUUCGGGCGGCUAUAAACAGACCUCAGGCCCGAAGCGUGGCGGCACCUGCCGCCGGUGGUAAAAAAGAUCGGAAGAGCACACGUCU", "note": "[U8C U10C U11C C12G C13A]", "aptazyme ON/OFF ratio": 1.29},
      {"variant": "GGGUCGUCGCAUAAUAAUCGCGUGGAUAUGGCACGCAAGUUUCUACCGGGCACCGUAAAUGUCCGACUGGAGCCGUUCGGGCGGCUAUAAACAGACCUCAGGCCCGAAGCGUGGCGGCACCUGCCGCCGGUGGUAAAAAAGAUCGGAAGAGCACACGUCU", "note": "[U8C U10C U11A C12U C13A]", "aptazyme ON/OFF ratio": 1.26},
      {"variant": "GGGUCGUCGCAUUAUAAUCGCGUGGAUAUGGCACGCAAGUUUCUACCGGGCACCGUAAAUGUCCGACUGGAGCCGUUCGGGCGGCUAUAAACAGACCUCAGGCCCGAAGCGUGGCGGCACCUGCCGCCGGUGGUAAAAAAGAUCGGAAGAGCACACGUCU", "note": "[U8C U10C U11A C12U C13U]", "aptazyme ON/OFF ratio": 1.35},
      {"variant": "GGGUCGUCGCAUGAUAAUCGCGUGGAUAUGGCACGCAAGUUUCUACCGGGCACCGUAAAUGUCCGACUGGAGCCGUUCGGGCGGCUAUAAACAGACCUCAGGCCCGAAGCGUGGCGGCACCUGCCGCCGGUGGUAAAAAAGAUCGGAAGAGCACACGUCU", "note": "[U8C U10C U11A C12U C13G]", "aptazyme ON/OFF ratio": 1.23},
      {"variant": "GGGUCGUCGCAGUAUAAUCGCGUGGAUAUGGCACGCAAGUUUCUACCGGGCACCGUAAAUGUCCGACUGGAGCCGUUCGGGCGGCUAUAAACAGACCUCAGGCCCGAAGCGUGGCGGCACCUGCCGCCGGUGGUAAAAAAGAUCGGAAGAGCACACGUCU", "note": "[U8C U10C U11A C12G C13U]", "aptazyme ON/OFF ratio": 1.24},
      {"variant": "GGGUCGUCGCAGAAUAAUCGCGUGGAUAUGGCACGCAAGUUUCUACCGGGCACCGUAAAUGUCCGACUGGAGCCGUUCGGGCGGCUAUAAACAGACCUCAGGCCCGAAGCGUGGCGGCACCUGCCGCCGGUGGUAAAAAAGAUCGGAAGAGCACACGUCU", "note": "[U8C U10C U11A C12G C13A]", "aptazyme ON/OFF ratio": 1.2},
      {"variant": "GGGUCGUCGCAGGAUAAUCGCGUGGAUAUGGCACGCAAGUUUCUACCGGGCACCGUAAAUGUCCGACUGGAGCCGUUCGGGCGGCUAUAAACAGACCUCAGGCCCGAAGCGUGGCGGCACCUGCCGCCGGUGGUAAAAAAGAUCGGAAGAGCACACGUCU", "note": "[U8C U10C U11A C12G C13G]", "aptazyme ON/OFF ratio": 1.24},
      {"variant": "GGGUCGUCGCGAUAUAAUCGCGUGGAUAUGGCACGCAAGUUUCUACCGGGCACCGUAAAUGUCCGACUGGAGCCGUUCGGGCGGCUAUAAACAGACCUCAGGCCCGAAGCGUGGCGGCACCUGCCGCCGGUGGUAAAAAAGAUCGGAAGAGCACACGUCU", "note": "[U8C U10C U11G C12A C13U]", "aptazyme ON/OFF ratio": 1.33},
      {"variant": "GGGUCGUCGCGAGAUAAUCGCGUGGAUAUGGCACGCAAGUUUCUACCGGGCACCGUAAAUGUCCGACUGGAGCCGUUCGGGCGGCUAUAAACAGACCUCAGGCCCGAAGCGUGGCGGCACCUGCCGCCGGUGGUAAAAAAGAUCGGAAGAGCACACGUCU", "note": "[U8C U10C U11G C12A C13G]", "aptazyme ON/OFF ratio": 1.21},
      {"variant": "GGGUCGUCGCGAAAUAAUCGCGUGGAUAUGGCACGCAAGUUUCUACCGGGCACCGUAAAUGUCCGACUGGAGCCGUUCGGGCGGCUAUAAACAGACCUCAGGCCCGAAGCGUGGCGGCACCUGCCGCCGGUGGUAAAAAAGAUCGGAAGAGCACACGUCU", "note": "[U8C U10C U11G C12A C13A]", "aptazyme ON/OFF ratio": 1.17},
      {"variant": "GGGUCGUCGCGACAUAAUCGCGUGGAUAUGGCACGCAAGUUUCUACCGGGCACCGUAAAUGUCCGACUGGAGCCGUUCGGGCGGCUAUAAACAGACCUCAGGCCCGAAGCGUGGCGGCACCUGCCGCCGGUGGUAAAAAAGAUCGGAAGAGCACACGUCU", "note": "[U8C U10C U11G C12A]", "aptazyme ON/OFF ratio": 1.15},
      {"variant": "GGGUCGUCGCGGCAUAAUCGCGUGGAUAUGGCACGCAAGUUUCUACCGGGCACCGUAAAUGUCCGACUGGAGCCGUUCGGGCGGCUAUAAACAGACCUCAGGCCCGAAGCGUGGCGGCACCUGCCGCCGGUGGUAAAAAAGAUCGGAAGAGCACACGUCU", "note": "[U8C U10C U11G C12G]", "aptazyme ON/OFF ratio": 1.25}
    ]}
  ]
}
